Assay results published in paper PMC3470569, “Probing Subunit-Subunit Interactions in the Yeast Vacuolar ATPase by Peptide Arrays” (PLoS ONE, 2012).
Ends that are not written are not given here. cellulose = not defined here

Experiments:
Assay in all cases: peptide or protein array; 20-mer peptides linked at their C-terminal end to cellulose and spotted in duplicate on glass slides; blocked in 2% nonfat milk; purified probe at 4 µM in TBS for 1 hour at 4°C; bound probe detected through MBP or FLAG with HRP-coupled antibody (chemiluminescence); hits by ANOVA (p 0.05, Bonferroni) and HCL in MeV, score of at least 1 in 75% of the spots
Settings in all cases: both partners purified
[1] = biological target: T1, C-terminal domain of subunit H (HCT), N-terminal MBP fusion (S. cerevisiae, UniProt P41807 353-478)
T1 construct: V-ATPase subunit H (Vma13p), S. cerevisiae, C-terminal globular domain 353-478 (126 amino acids); Construct provided by the laboratory of Dr. Patricia Kane; also called MBP-HCT; source: E. coli, purified (amylose column; ultrafiltration or size exclusion chromatography); not shown: MBP, N-terminal, kept
T1 sequence (looked up): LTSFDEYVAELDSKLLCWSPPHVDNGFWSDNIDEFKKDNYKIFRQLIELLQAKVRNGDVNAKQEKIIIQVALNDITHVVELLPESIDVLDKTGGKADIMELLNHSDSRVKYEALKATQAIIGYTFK

[2] = biological target: T2, full-length subunit C, N-terminal MBP fusion (S. cerevisiae, UniProt P31412 1-392)
T2 construct: V-ATPase subunit C, S. cerevisiae, 392 amino acids; also called MBP-C; source: E. coli, purified (amylose column); not shown: MBP, N-terminal, kept
T2 sequence (looked up): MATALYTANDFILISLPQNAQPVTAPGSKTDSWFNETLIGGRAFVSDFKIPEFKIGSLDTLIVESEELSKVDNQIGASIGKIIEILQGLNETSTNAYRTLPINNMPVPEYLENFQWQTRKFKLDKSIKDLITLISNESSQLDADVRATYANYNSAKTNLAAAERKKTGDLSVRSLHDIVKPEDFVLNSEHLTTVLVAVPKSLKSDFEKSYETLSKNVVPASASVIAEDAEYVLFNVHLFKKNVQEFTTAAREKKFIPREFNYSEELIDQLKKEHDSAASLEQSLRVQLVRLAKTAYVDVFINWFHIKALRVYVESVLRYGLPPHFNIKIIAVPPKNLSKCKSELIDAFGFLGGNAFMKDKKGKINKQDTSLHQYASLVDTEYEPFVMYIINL

[3] = biological target: maltose binding protein (MBP) only (UniProt P0AEX9 27-396 = MBP)
[4] = biological target: T3, full-length subunit H (Vma13p), N-terminal MBP fusion (S. cerevisiae, UniProt P41807 1-478)
T3 construct: V-ATPase subunit H (Vma13p), S. cerevisiae, 478 amino acids; Construct provided by the laboratory of Dr. Patricia Kane; also called MBP-H; source: E. coli, purified (amylose column; ultrafiltration or size exclusion chromatography); not shown: MBP, N-terminal, kept
T3 sequence (looked up): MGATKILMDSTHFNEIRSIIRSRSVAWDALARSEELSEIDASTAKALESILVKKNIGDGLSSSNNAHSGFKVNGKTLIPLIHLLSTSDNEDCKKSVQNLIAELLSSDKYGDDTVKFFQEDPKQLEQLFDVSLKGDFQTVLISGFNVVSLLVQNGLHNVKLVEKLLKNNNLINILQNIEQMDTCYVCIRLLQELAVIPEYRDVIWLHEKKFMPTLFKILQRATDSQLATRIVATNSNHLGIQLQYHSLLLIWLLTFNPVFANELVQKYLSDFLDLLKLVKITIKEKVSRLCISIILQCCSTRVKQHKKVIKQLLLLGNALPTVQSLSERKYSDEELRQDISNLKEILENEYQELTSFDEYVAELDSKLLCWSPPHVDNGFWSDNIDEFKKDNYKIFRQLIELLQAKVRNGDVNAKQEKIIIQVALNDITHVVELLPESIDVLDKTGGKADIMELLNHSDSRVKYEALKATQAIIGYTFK

[5] = biological target: T4, subunit E (Vma4p), N-terminal MBP fusion (S. cerevisiae, UniProt P22203 1-233)
T4 construct: V-ATPase subunit E (Vma4p), S. cerevisiae, 233 amino acids; also called MBP-E; source: E. coli, purified (amylose column); not shown: MBP, N-terminal, kept
T4 sequence (looked up): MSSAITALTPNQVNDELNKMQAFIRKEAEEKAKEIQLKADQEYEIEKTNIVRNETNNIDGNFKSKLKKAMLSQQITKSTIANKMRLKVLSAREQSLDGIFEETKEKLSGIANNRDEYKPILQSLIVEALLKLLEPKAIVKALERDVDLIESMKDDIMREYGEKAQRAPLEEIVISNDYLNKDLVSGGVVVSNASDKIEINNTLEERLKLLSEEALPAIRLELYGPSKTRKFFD

| Binder | binding result [2] | other results |
| --- | --- | --- |
| FILISLPQNAQPVTAPGSKT-cellulose (peptide, UniProt P31412 11-30, looked up, reading uncertain, V-ATPase subunit C, S. cerevisiae, residues 11-30; source: synthetic peptide, spotted on glass slide array (Intavis)) [C(11-30)] | binds | binding result [1]: binds |
| TVRQGQVLEIRGDRAIVQVF-cellulose (peptide, UniProt P16140 61-80, looked up, reading uncertain, V-ATPase subunit B, S. cerevisiae, residues 61-80; source: synthetic peptide, spotted on glass slide array (Intavis)) [B(61-80)] | binds | – |
| SYIDPEINDFRLTGLGRGGQ-cellulose (reading uncertain, The promiscuous, 'sticky' peptide that was detected by most probes including MBP alone; source: synthetic peptide, spotted on glass slide array (Intavis)) [D(111-130)] | – | binding result [3]: binds |
| RGEIFDMAFTGRYIILLMGV-cellulose (peptide, UniProt P32563 451-470, looked up, reading uncertain, source: synthetic peptide, spotted on glass slide array (Intavis)) [a(451-470)] | binds | – |
| TVLVDTPLAPYFKNCFDTAE-cellulose (peptide, UniProt P32366 151-170, looked up, reading uncertain, source: synthetic peptide, spotted on glass slide array (Intavis)) [d(151-170)] | – | binding result [4]: binds; binding result [5]: binds |
| PEDFVLNSEHLTTVLVAVPK-cellulose (peptide, UniProt P31412 181-200, looked up, reading uncertain, source: synthetic peptide, spotted on glass slide array (Intavis)) [C(181-200)] | binds | – |
| GKKSDFTLYHTWPVRVPRPV-cellulose (peptide, UniProt P17255 205-224, looked up, reading uncertain, source: synthetic peptide, spotted on glass slide array (Intavis)) [A(205-224)] | binds | binding result [1]: binds |
